In the assay the target is dimeric human ACE2 fused to Fc domain of human IgG (human) (UniProt Q9BYF1). The assay is described as follows: SPR.

pKd: −log10 of the molar value.

As a reminder, the pKd is the Kd on a negative log10 scale, so that one unit is a factor of ten.

Chain of dimeric human ACE2 fused to Fc domain of human IgG (human) (Q9BYF1 18-740): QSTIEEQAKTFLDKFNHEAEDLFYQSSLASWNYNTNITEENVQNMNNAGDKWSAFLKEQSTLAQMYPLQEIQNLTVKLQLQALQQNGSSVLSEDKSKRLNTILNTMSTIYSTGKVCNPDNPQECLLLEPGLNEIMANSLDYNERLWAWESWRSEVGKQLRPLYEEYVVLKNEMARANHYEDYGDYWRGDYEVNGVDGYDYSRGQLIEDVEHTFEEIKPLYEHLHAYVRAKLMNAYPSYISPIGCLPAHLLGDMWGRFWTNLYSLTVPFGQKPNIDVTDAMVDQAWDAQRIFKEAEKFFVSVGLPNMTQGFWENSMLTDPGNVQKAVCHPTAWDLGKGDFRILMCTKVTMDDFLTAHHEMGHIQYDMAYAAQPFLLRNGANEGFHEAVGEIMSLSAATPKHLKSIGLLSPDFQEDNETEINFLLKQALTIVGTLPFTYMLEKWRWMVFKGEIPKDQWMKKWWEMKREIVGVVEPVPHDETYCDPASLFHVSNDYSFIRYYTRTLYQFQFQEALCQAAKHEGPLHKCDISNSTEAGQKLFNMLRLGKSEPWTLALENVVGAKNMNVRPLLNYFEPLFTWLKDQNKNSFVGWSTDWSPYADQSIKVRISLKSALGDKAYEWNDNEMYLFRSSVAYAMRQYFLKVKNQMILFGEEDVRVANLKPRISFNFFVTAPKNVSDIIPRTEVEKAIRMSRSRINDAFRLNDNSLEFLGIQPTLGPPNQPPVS

The substance “ADDomer particle decorated with SARS-CoV-2 RBD (ADD-RBD) (from UniProt Q2Y0H9 1-544; P0DTC2 320-554) (complex)” showed a pKd of 9.51.

The record behind these values is paper doi:10.1101/2021.09.13.460076.
